# Patent publication US12630600B2 (MEDIMMUNE LIMITED, priority 2022, dated 2026)
# Starred links: 1 amine or outer side, 2 acyl side, 3 side chain; linkers in the order of their positions; H or OH if unused. Non-standard residues stand in square brackets, D forms with d. Groups on a side chain read outwards from the residue. No end group written: not given here. *: point of attachment. C20 diacid = O=C(O)CCCCCCCCCCCCCCCCCCC(=O)*; C18 diacid = O=C(O)CCCCCCCCCCCCCCCCC(=O)*; γGlu = O=C(O)[C@H](CCC(=O)[*:2])N[*:1]; αMeF = C[C@](N)(Cc1ccccc1)C(=O)O; AEEA = NCCOCCOCC(=O)O; Aib = CC(C)(N)C(=O)O
# Tests used:
# [1] = target: human GLP-1 receptor (human, UniProt P43220); assay: cell-based or functional assay
# [2] = target: human glucagon receptor (human, UniProt P47871); assay: cell-based or functional assay
"cAMP production, hGLP-1R EC50 (pM) [1] [pM]","cAMP production, hGluc-R EC50 (pM) [2] [pM]",Binder
82.8,101,H[Aib]HGS[αMeF]TSDVSK[αMeF]LDSK([AEEA-AEEA-γGlu-C18 diacid])AAQD[αMeF]VQ[Aib]IANT-NH2 (N-terminus assumed; SMILES CC[C@H](C)[C@H](NC(=O)C(C)(C)NC(=O)[C@H](CCC(N)=O)NC(=O)[C@@H](NC(=O)[C@](C)(Cc1ccccc1)NC(=O)[C@H](CC(=O)O)NC(=O)[C@H](CCC(N)=O)NC(=O)[C@H](C)NC(=O)[C@H](C)NC(=O)[C@H](CCCCNC(=O)COCCOCCNC(=O)COCCOCCNC(=O)CC[C@H](NC(=O)CCCCCCCCCCCCCCCCC(=O)O)C(=O)O)NC(=O)[C@H](CO)NC(=O)[C@H](CC(=O)O)NC(=O)[C@H](CC(C)C)NC(=O)[C@](C)(Cc1ccccc1)NC(=O)[C@H](CCCCN)NC(=O)[C@H](CO)NC(=O)[C@@H](NC(=O)[C@H](CC(=O)O)NC(=O)[C@H](CO)NC(=O)[C@@H](NC(=O)[C@](C)(Cc1ccccc1)NC(=O)[C@H](CO)NC(=O)CNC(=O)[C@H](Cc1c[nH]cn1)NC(=O)C(C)(C)NC(=O)[C@@H](N)Cc1c[nH]cn1)[C@@H](C)O)C(C)C)C(C)C)C(=O)N[C@@H](C)C(=O)N[C@@H](CC(N)=O)C(=O)N[C@H](C(N)=O)[C@@H](C)O) [Peptide 24]
107,629,H[Aib]QGTFTSDVSK[αMeF]LDSK([AEEA-AEEA-γGlu-C18 diacid])RA[Aib]DFVQWLL[Aib]T-OH (N-terminus assumed; SMILES CC(C)C[C@H](NC(=O)[C@H](Cc1c[nH]c2ccccc12)NC(=O)[C@H](CCC(N)=O)NC(=O)[C@@H](NC(=O)[C@H](Cc1ccccc1)NC(=O)[C@H](CC(=O)O)NC(=O)C(C)(C)NC(=O)[C@H](C)NC(=O)[C@H](CCCNC(=N)N)NC(=O)[C@H](CCCCNC(=O)COCCOCCNC(=O)COCCOCCNC(=O)CC[C@H](NC(=O)CCCCCCCCCCCCCCCCC(=O)O)C(=O)O)NC(=O)[C@H](CO)NC(=O)[C@H](CC(=O)O)NC(=O)[C@H](CC(C)C)NC(=O)[C@](C)(Cc1ccccc1)NC(=O)[C@H](CCCCN)NC(=O)[C@H](CO)NC(=O)[C@@H](NC(=O)[C@H](CC(=O)O)NC(=O)[C@H](CO)NC(=O)[C@@H](NC(=O)[C@H](Cc1ccccc1)NC(=O)[C@@H](NC(=O)CNC(=O)[C@H](CCC(N)=O)NC(=O)C(C)(C)NC(=O)[C@@H](N)Cc1c[nH]cn1)[C@@H](C)O)[C@@H](C)O)C(C)C)C(C)C)C(=O)N[C@@H](CC(C)C)C(=O)NC(C)(C)C(=O)N[C@H](C(=O)O)[C@@H](C)O) [Peptide 29]
378,68.8,H[Aib]HGS[αMeF]TSDVSK[αMeF]LDSK([γGlu-C18 diacid])AAQD[αMeF]VESIANT-NH2 (N-terminus assumed; SMILES CC[C@H](C)[C@H](NC(=O)[C@H](CO)NC(=O)[C@H](CCC(=O)O)NC(=O)[C@@H](NC(=O)[C@](C)(Cc1ccccc1)NC(=O)[C@H](CC(=O)O)NC(=O)[C@H](CCC(N)=O)NC(=O)[C@H](C)NC(=O)[C@H](C)NC(=O)[C@H](CCCCNC(=O)CC[C@H](NC(=O)CCCCCCCCCCCCCCCCC(=O)O)C(=O)O)NC(=O)[C@H](CO)NC(=O)[C@H](CC(=O)O)NC(=O)[C@H](CC(C)C)NC(=O)[C@](C)(Cc1ccccc1)NC(=O)[C@H](CCCCN)NC(=O)[C@H](CO)NC(=O)[C@@H](NC(=O)[C@H](CC(=O)O)NC(=O)[C@H](CO)NC(=O)[C@@H](NC(=O)[C@](C)(Cc1ccccc1)NC(=O)[C@H](CO)NC(=O)CNC(=O)[C@H](Cc1c[nH]cn1)NC(=O)C(C)(C)NC(=O)[C@@H](N)Cc1c[nH]cn1)[C@@H](C)O)C(C)C)C(C)C)C(=O)N[C@@H](C)C(=O)N[C@@H](CC(N)=O)C(=O)N[C@H](C(N)=O)[C@@H](C)O) [Peptide 21]
1280,4190,HSQGS[αMeF]TSDVSK[αMeF]LDSK([AEEA-AEEA-γGlu-C20 diacid])AAQD[αMeF]VQWIANT-NH2 (N-terminus assumed; SMILES CC[C@H](C)[C@H](NC(=O)[C@H](Cc1c[nH]c2ccccc12)NC(=O)[C@H](CCC(N)=O)NC(=O)[C@@H](NC(=O)[C@](C)(Cc1ccccc1)NC(=O)[C@H](CC(=O)O)NC(=O)[C@H](CCC(N)=O)NC(=O)[C@H](C)NC(=O)[C@H](C)NC(=O)[C@H](CCCCNC(=O)COCCOCCNC(=O)COCCOCCNC(=O)CC[C@H](NC(=O)CCCCCCCCCCCCCCCCCCC(=O)O)C(=O)O)NC(=O)[C@H](CO)NC(=O)[C@H](CC(=O)O)NC(=O)[C@H](CC(C)C)NC(=O)[C@](C)(Cc1ccccc1)NC(=O)[C@H](CCCCN)NC(=O)[C@H](CO)NC(=O)[C@@H](NC(=O)[C@H](CC(=O)O)NC(=O)[C@H](CO)NC(=O)[C@@H](NC(=O)[C@](C)(Cc1ccccc1)NC(=O)[C@H](CO)NC(=O)CNC(=O)[C@H](CCC(N)=O)NC(=O)[C@H](CO)NC(=O)[C@@H](N)Cc1c[nH]cn1)[C@@H](C)O)C(C)C)C(C)C)C(=O)N[C@@H](C)C(=O)N[C@@H](CC(N)=O)C(=O)N[C@H](C(N)=O)[C@@H](C)O) [Peptide 2]
726,1310,H[Aib]HGS[αMeF]TSDVSK[αMeF]LDSK([AEEA-AEEA-γGlu-γGlu-C20 diacid])AAQD[αMeF]VQ[Aib]IANT-NH2 [Peptide 25]
1230,2720,H[Aib]HGS[αMeF]TSDVSK[αMeF]LDSK([AEEA-AEEA-γGlu-γGlu-C20 diacid])AAQD[αMeF]VESIANT-NH2 (N-terminus assumed; SMILES CC[C@H](C)[C@H](NC(=O)[C@H](CO)NC(=O)[C@H](CCC(=O)O)NC(=O)[C@@H](NC(=O)[C@](C)(Cc1ccccc1)NC(=O)[C@H](CC(=O)O)NC(=O)[C@H](CCC(N)=O)NC(=O)[C@H](C)NC(=O)[C@H](C)NC(=O)[C@H](CCCCNC(=O)COCCOCCNC(=O)COCCOCCNC(=O)CC[C@H](NC(=O)CC[C@H](NC(=O)CCCCCCCCCCCCCCCCCCC(=O)O)C(=O)O)C(=O)O)NC(=O)[C@H](CO)NC(=O)[C@H](CC(=O)O)NC(=O)[C@H](CC(C)C)NC(=O)[C@](C)(Cc1ccccc1)NC(=O)[C@H](CCCCN)NC(=O)[C@H](CO)NC(=O)[C@@H](NC(=O)[C@H](CC(=O)O)NC(=O)[C@H](CO)NC(=O)[C@@H](NC(=O)[C@](C)(Cc1ccccc1)NC(=O)[C@H](CO)NC(=O)CNC(=O)[C@H](Cc1c[nH]cn1)NC(=O)C(C)(C)NC(=O)[C@@H](N)Cc1c[nH]cn1)[C@@H](C)O)C(C)C)C(C)C)C(=O)N[C@@H](C)C(=O)N[C@@H](CC(N)=O)C(=O)N[C@H](C(N)=O)[C@@H](C)O) [Peptide 22]
38.3,133,H[Aib]HGS[αMeF]TSDVSK[αMeF]LDSK([AEEA-AEEA-γGlu-γGlu-C18 diacid])AARD[αMeF]VQ[Aib]IANT-NH2 (N-terminus assumed; SMILES CC[C@H](C)[C@H](NC(=O)C(C)(C)NC(=O)[C@H](CCC(N)=O)NC(=O)[C@@H](NC(=O)[C@](C)(Cc1ccccc1)NC(=O)[C@H](CC(=O)O)NC(=O)[C@H](CCCNC(=N)N)NC(=O)[C@H](C)NC(=O)[C@H](C)NC(=O)[C@H](CCCCNC(=O)COCCOCCNC(=O)COCCOCCNC(=O)CC[C@H](NC(=O)CC[C@H](NC(=O)CCCCCCCCCCCCCCCCC(=O)O)C(=O)O)C(=O)O)NC(=O)[C@H](CO)NC(=O)[C@H](CC(=O)O)NC(=O)[C@H](CC(C)C)NC(=O)[C@](C)(Cc1ccccc1)NC(=O)[C@H](CCCCN)NC(=O)[C@H](CO)NC(=O)[C@@H](NC(=O)[C@H](CC(=O)O)NC(=O)[C@H](CO)NC(=O)[C@@H](NC(=O)[C@](C)(Cc1ccccc1)NC(=O)[C@H](CO)NC(=O)CNC(=O)[C@H](Cc1c[nH]cn1)NC(=O)C(C)(C)NC(=O)[C@@H](N)Cc1c[nH]cn1)[C@@H](C)O)C(C)C)C(C)C)C(=O)N[C@@H](C)C(=O)N[C@@H](CC(N)=O)C(=O)N[C@H](C(N)=O)[C@@H](C)O) [Peptide 19]
266,321,H[Aib]HGS[αMeF]TSDVSK[αMeF]LDSK([AEEA-AEEA-γGlu-C18 diacid])AAQD[αMeF]VESIANT-NH2 (N-terminus assumed; SMILES CC[C@H](C)[C@H](NC(=O)[C@H](CO)NC(=O)[C@H](CCC(=O)O)NC(=O)[C@@H](NC(=O)[C@](C)(Cc1ccccc1)NC(=O)[C@H](CC(=O)O)NC(=O)[C@H](CCC(N)=O)NC(=O)[C@H](C)NC(=O)[C@H](C)NC(=O)[C@H](CCCCNC(=O)COCCOCCNC(=O)COCCOCCNC(=O)CC[C@H](NC(=O)CCCCCCCCCCCCCCCCC(=O)O)C(=O)O)NC(=O)[C@H](CO)NC(=O)[C@H](CC(=O)O)NC(=O)[C@H](CC(C)C)NC(=O)[C@](C)(Cc1ccccc1)NC(=O)[C@H](CCCCN)NC(=O)[C@H](CO)NC(=O)[C@@H](NC(=O)[C@H](CC(=O)O)NC(=O)[C@H](CO)NC(=O)[C@@H](NC(=O)[C@](C)(Cc1ccccc1)NC(=O)[C@H](CO)NC(=O)CNC(=O)[C@H](Cc1c[nH]cn1)NC(=O)C(C)(C)NC(=O)[C@@H](N)Cc1c[nH]cn1)[C@@H](C)O)C(C)C)C(C)C)C(=O)N[C@@H](C)C(=O)N[C@@H](CC(N)=O)C(=O)N[C@H](C(N)=O)[C@@H](C)O) [Peptide 23]
